Measured values published in patent US11254722B2, “Recombinant proteins and uses thereof” (ACADEMIA SINICA, priority 2017, dated 2022).

Columns and labels:
hep3B cells = assay: hep3B proliferation assay; type: cell-based, human
Description: (§1) For the proliferation assay, cells except for HUVEC were seeded at a density of 1,000 to 6,000 in 96 wells in an assay buffer of DMEM/F12 plus 0.2% BSA and 10 ug/ml transferrin. Chemical inhibitors were added after 16-20 hours after plating; IGF-1 or other growth factors or test chimeras in assay buffer were added at the time of plating or 16-20 hours after plating. 5,000 HUVEC ells were plated in poly-L-lysine coated 96 wells in M199 with 1%/FBS and HEPES. After 3 to 4 days of culture, growth was determined by incubating cells with Alamar blue for 4 to 6 hours and then the fluorescence (RFU) at 544/590 nm was read. For long term proliferation assays, cells were plated in the growth media with 5% or 10% FBS at densities of 500 to 10,000 cells per cm^2 growth area and grown for 7 to 21 days. Inhibitors and effectors were added 1-4 days after plating. Cells were exposed to cisplatin or gemcitabine for two days. Medium was renewed twice weekly. At completion, cells were fixed and then stained with Giemsa.
The human hepatoma cell line hep3B could be stimulated by many growth factors including IGF-1, IGF-2, HGF, bFGF, VEGF, and neuregulin.

[1] = system: MCF-7 breast cancer cells; assay: MCF-7 proliferation assay; type: cell-based; conditions: fetal bovine serum; FIG. 1, FIG. 4
Description: (§2) MCF-7 cells (a breast cancer cell line) were maintained in MEM (GIBCO) plus insulin and NEAA and 10% FBS (Hyclone).
as §1
We next examined the effect of 56662 (BP3/Fc) on the proliferation induced by growth factors that interacted with the IGFBP3. The proliferation of MCF-7 breast cancer cells was induced in serum-free medium by individual growth factors like IGF-1, IGF-2, EGF, TGF-a, Nrgbx, b-FGF, and amphiregulin (FIG. 1).

HT29 cells = assay: HT29 proliferation assay; type: cell-based, human; conditions: FIG. 17A isobologram, FIG. 17B
Description: as §2, §1
The combination of drug (erlotinib and vemurafenib in hep3b and HT29 cells, respectively) and chimera can be synergistic; so, in addition to enhancing the inhibition, the chimera addition may also lower drug concentration requirements and reduce side effects.

HUVEC cells = assay: HUVEC proliferation assay; type: cell-based
Description: as §2, §1
Growth factor synergism can also be observed in the proliferation of HUVEC cells.

## COc1cccc2c1C(=O)c1c(O)c3c(c(O)c1C2=O)C[C@@](O)(C(=O)CO)C[C@@H]3O[C@H]1C[C@H](N)[C@H](O)[C@H](C)O1 [doxorubicin, reference compound]
hep3B cells; 0.01 uM doxorubicin
  proliferation of hep3B cells: greatly inhibited

B1: 80716: IGFBP3 with IGFBP6 linker-gly 6 linker-v1v2-Fc, SEQ ID NO: 16 (protein)
chain: MSEVPVARVWLVLLLLTVQVGVTAGGASSAGLGPVVRCEPCDARALAQCAPPPAVCAELVREPGCGCCLTCALSEGQPCGIYTERCGSGLRCQPSPDEARPLQALLDGRGLCPARAPAVAEENPKESKPQAGTARPQDVNRRDQQRNPGTSTTPSQPNSAGVQDTEMGPCRREMEDTLNHLKFLNVLSPRGVHIPNCDKKGFYKKKQCRPSKGRKRGFCWCVDKYGQPLPGYTTKGKEDVHCYSMQSKPARAPAVAEENPKESKPQAGTARPQDVNRRDQQRNPGTSTTPSQPNSAGVQDTEMIYIFISDTGRPFVEMYSEIPEIIHMTEGRELVIPCRVTSPNITVTLKKFPLDTLIPDGKRIIWDSRKGFIISNATYKEIGLLTCEATVNGHLYKTNYLTHRQGYRIYDVVLSPSHGIELSVGEKLVLNCTARTELNVGIDFNWEYPSSKHQHKKLVNRDLKTQSGSEMKKFLSTLTIDGVTRSDQGLYTCAASSGLMTKKNSTFVRVHEKVECPPCPAPPVAGPSVFLFPPKPKDQLMISRTPEVTCVVVDVSHEDPEVKFNWYVDGVEVHNAKTKPREEQYNSTYRVVSVLTVLHQDWLNGKEYKCKVSNKGLPSSIEKTISKAKGQPREPQVYTLPPSREEMTKNQVSLTCLVKGFYPSDIAVEWESNGQPENNYKTTPPVLDSDGSFFLYSKLTVDKSRWQQGNVFSCSVMHEGLHNHYTQKSLSLSPGK
[1]
  inhibition of FBS-induced proliferation of MCF-7: unable to inhibit

B2: met3con: SEQ ID NO: 32; Met3con is the met3 domain Fc (protein)
chain: MSEVPVARVWLVLLLLTVQVGVTAGAAASGGGSGGGGSGGGGSGGGGDPIVYEIHPTKSFISTWWKEPLNIVSFLFCFASGGSTITGVGKNLNSVSVPRMVINVHEAGRNFTVACQHRSNSEIICCTTPSLQQLNLQLPLKTKAFFMLDGILSKYFDLIYVHSGGGSGGGTGVECPPCPAPPVAGPSVFLFPPKPKDQLMISRTPEVTCVVVDVSHEDPEVKFNWYVDGVEVHNAKTKPREEQYNSTYRVVSVLTVLHQDWLNGKEYKCKVSNKGLPSSIEKTISKAKGQPREPQVYTLPPSREEMTKNQVSLTCLVKGFYPSDIAVEWESNGQPENNYKTTPPVLDSDGSFFLYSKLTVDKSRWQQGNVFSCSVMHEGLHNHYTQKSLSLSPGK
hep3B cells; Table 10
  IC50, FBS-stimulated proliferation of hep3B cells: no inh
  IC50, HGF-stimulated proliferation of hep3B cells: no inh
  IC50, IGF1-stimulated proliferation of hep3B cells: No inh
  IC50, bFGF-stimulated proliferation of hep3B cells: no inh
  IC50, nrg-stimulated proliferation of hep3B cells: No inh

B3: D2V1V2Fc: IGFBP3 with IGFBP3 linker deletion 2-gly 3 linker-v1v2-Fc, SEQ ID NO: 17 (protein)
chain: MSEVPVARVWLVLLLLTVQVGVTAGHHHHHHGASSAGLGPVVRCEPCDARALAQCAPPPAVCAELVREPGCGCCLTCALSEGQPCGIYTERCGSGLRCQPSPDEARPLQALLDGRGLCVNASAVSRPAPPAPGNASESEEDRSAGSVESPSVSSTHRVSDPKFHPKGHAKDSQRYKVDYESQSTDTQNFSSESKRETEYGPCRREMEDTLNHLKFLNVLSPRGVHIPNCDKKGFYKKKQCRPSKGRKRGFCWCVDKYGQPLPGYTTKGKEDVHCYSMQSKAPPAPGNASESEEDRSAGIYIFISDTGRPFVEMYSEIPEIIHMTEGRELVIPCRVTSPNITVTLKKFPLDTLIPDGKRIIWDSRKGFIISNATYKEIGLLTCEATVNGHLYKTNYLTHRQGYRIYDVVLSPSHGIELSVGEKLVLNCTARTELNVGIDFNWEYPSSKHQHKKLVNRDLKTQSGSEMKKFLSTLTIDGVTRSDQGLYTCAASSGLMTKKNSTFVRVHEKVECPPCPAPPVAGPSVFLFPPKPKDQLMISRTPEVTCVVVDVSHEDPEVKFNWYVDGVEVHNAKTKPREEQYNSTYRVVSVLTVLHQDWLNGKEYKCKVSNKGLPSSIEKTISKAKGQPREPQVYTLPPSREEMTKNQVSLTCLVKGFYPSDIAVEWESNGQPENNYKTTPPVLDSDGSFFLYSKLTVDKSRWQQGNVFSCSVMHEGLHNHYTQKSLSLSPGK
HT29 cells
  inhibition with vemurafenib in HT29 cells: synergistic inhibition
HUVEC cells; FIG. 14
  inhibition of HUVEC proliferation stimulated by IGF-1, bFGF, HGF, VEGF, and combinations: inhibited

B4: 3(del2)3: IGFBP3 with IGFBP3 linker deletion 2-Fc, SEQ ID NO: 11 (protein)
chain: MSEVPVARVWLVLLLLTVQVGVTAGGASSAGLGPVVRCEPCDARALAQCAPPPAVCAELVREPGCGCCLTCALSEGQPCGIYTERCGSGLRCQPSPDEARPLQALLDGRGLCVNASAVSRPAPPAPGNASESEEDRSAGSVESPSVSSTHRVSDPKFHPKGHAKDSQRYKVDYESQSTDTQNFSSESKRETEYGPCRREMEDTLNHLKFLNVLSPRGVHIPNCDKKGFYKKKQCRPSKGRKRGFCWCVDKYGQPLPGYTTKGKEDVHCYSMQSKVECPPCPAPPVAGPSVFLFPPKPKDQLMISRTPEVTCVVVDVSHEDPEVKFNWYVDGVEVHNAKTKPREEQYNSTYRVVSVLTVLHQDWLNGKEYKCKVSNKGLPSSIEKTISKAKGQPREPQVYTLPPSREEMTKNQVSLTCLVKGFYPSDIAVEWESNGQPENNYKTTPPVLDSDGSFFLYSKLTVDKSRWQQGNVFSCSVMHEGLHNHYTQKSLSLSPGK
HUVEC cells; FIG. 6, FIG. 13
  inhibition of VEGF-induced proliferation of HUVEC cells: did not inhibit
HUVEC cells; FIG. 13
  inhibition of HUVEC proliferation induced by IGF, bFGF, HGF or a combination: inhibited

B5: 105795: IGFBP3 with IGFBP4 linker deletion-Fc, SEQ ID NO: 9 (protein)
chain: MSEVPVARVWLVLLLLTVQVGVTAGGASSAGLGPVVRCEPCDARALAQCAPPPAVCAELVREPGCGCCLTCALSEGQPCGIYTERCGSGLRCQPSPDEARPLQALLDGRGLCMELAEIEAIQESLQPSDKDEGDHPNNSFSPCSAHDRRCLQETEYGPCRREMEDTLNHLKFLNVLSPRGVHIPNCDKKGFYKKKQCRPSKGRKRGFCWCVDKYGQPLPGYTTKGKEDVHCYSMQSKVECPPCPAPPVAGPSVFLFPPKPKDQLMISRTPEVTCVVVDVSHEDPEVKFNWYVDGVEVHNAKTKPREEQYNSTYRVVSVLTVLHQDWLNGKEYKCKVSNKGLPSSIEKTISKAKGQPREPQVYTLPPSREEMTKNQVSLTCLVKGFYPSDIAVEWESNGQPENNYKTTPPVLDSDGSFFLYSKLTVDKSRWQQGNVFSCSVMHEGLHNHYTQKSLSLSPGK
[1]
  inhibition of FBS-induced proliferation of MCF-7: unable to inhibit
